{"source": "paper PMC6449355", "about": "“A TetR-family transcription factor regulates fatty acid metabolism in the archaeal model organism Sulfolobus acidocaldarius” (Nature Communications, 2019)", "molecules": {"B1": {"name": "FadRSa (TetR-family transcriptional regulator encoded by Saci_1107), recombinant His-tagged (natural protein, Sulfolobus acidocaldarius, UniProt Q4J9S1 1-196, looked up)", "chain": "MMYRAPKTEKGKESLNKILDASVELIADKGFLSTSINDITSKAGVAYGLFYFYFKSKHDILDEIIRQFNRNMRYYLKTYTQNLDSRIDVEKVGMKKFLEWMNENKKYYKIFIETQVHRPDIYKWHFMKLAERYTTGLSEAMRRGEIINVDPELLSYVLIGIAHMLGKRYVLWSNSGLTLKQQRDLDLIIENMLTPR", "notes": "FadRSa, TetR-family regulator encoded by Saci_1107 of Sulfolobus acidocaldarius; the fadRSa coding region amplified from genomic DNA; An N-terminally His-tagged (pET45b) and a C-terminally His-tagged (pET24a) construct were both made; also called wildtype FadRSa; source: E. coli Rosetta (DE3), purified (heat treatment 80 °C, His GraviTrap IMAC)"}, "B2": {"name": "FadRSa N37A (natural protein, Sulfolobus acidocaldarius, UniProt Q4J9S1 1-196, looked up)", "chain": "B1 chain with N37A", "notes": "FadRSa, encoded by Saci_1107 of Sulfolobus acidocaldarius; made by site-directed mutagenesis with pET24axfadRSaNdenull as template; also called N37A mutant FadRSa; source: E. coli Rosetta (DE3), purified (heat treatment 80 °C, His GraviTrap IMAC)"}, "B3": {"name": "SeMet FadRSa (selenomethionine-substituted FadRSa) (natural protein, Sulfolobus acidocaldarius, UniProt Q4J9S1 1-196, looked up)", "chain": "B1 chain", "modifications": "selenomethionine-substituted", "notes": "FadRSa, TetR-family regulator encoded by Saci_1107 of Sulfolobus acidocaldarius; the fadRSa coding region in pET45b (BamHI/HindIII); One subunit (B) of the crystallised dimer carried an acyl-CoA, likely derived from E. coli; also called SeMet-substituted FadRSa; SeMet-derivated FadRSa"}, "B4": {"name": "fadRSa operator 45-bp (dsDNA)", "DNA 1": "ACTACAATGATAGTCGACTCAAAAATCAAGTAGTAAAGGTGGTGT", "DNA 2": "ACACCACCTTTACTACTTGATTTTTGAGTCGACTATCATTGTAGT"}, "B5": {"name": "fadRSa operator 21-mer (dsDNA)", "DNA 1": "GTCGACTCAAAAATCAAGTAG", "DNA 2": "CTACTTGATTTTTGAGTCGAC"}, "B6": {"name": "Saci_1123 operator 45-bp (dsDNA)", "DNA 1": "ACTACATAATCAGTTGATTATAATGTCAACTTTATAAAGTGGTGT", "DNA 2": "ACACCACTTTATAAAGTTGACATTATAATCAACTGATTATGTAGT"}, "B7": {"name": "mutated Saci_1123 operator 45-bp (dsDNA)", "DNA 1": "B6 DNA 1 with A9G, A20C", "DNA 2": "B6 DNA 2 with T26G, T37C"}}, "key": {"FadRSa [1]": {"target": "T1, FadRSa (Sulfolobus acidocaldarius, UniProt Q4J9S1)", "T1 construct": "gene Saci_1107; full-length, recombinant in E. coli Rosetta (DE3), His-tagged (N-terminal from pET45b or C-terminal from pET24a; mutants C-terminal), tag kept; homodimer, 44 kDa", "experiment": "EMSA, release of FadRSa from operator DNA", "type": "binding", "details": "154-bp Saci_1106 operator probe, pH 8.0, 37 °C; allosteric inducer"}, "FadRSa [2]": {"target": "T2, FadRSa (Sulfolobus acidocaldarius, UniProt Q4J9S1, M101A)", "T2 construct": "gene Saci_1107; full-length, recombinant in E. coli Rosetta (DE3), His-tagged (N-terminal from pET45b or C-terminal from pET24a; mutants C-terminal), tag kept; homodimer, 44 kDa", "T2 sequence (Q4J9S1 entry or part of it M101A)": "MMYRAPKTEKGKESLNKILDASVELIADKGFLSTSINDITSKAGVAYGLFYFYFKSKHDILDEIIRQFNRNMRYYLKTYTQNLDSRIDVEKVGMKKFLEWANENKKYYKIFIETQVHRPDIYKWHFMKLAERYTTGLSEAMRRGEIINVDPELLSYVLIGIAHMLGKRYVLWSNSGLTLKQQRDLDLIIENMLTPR", "experiment": "EMSA, ligand response of mutant (fraction of bound DNA)", "type": "binding", "details": "pH 8.0, 37 °C; allosteric inducer"}, "[3]": {"target": "T3, FadRSa (Sulfolobus acidocaldarius) (UniProt Q4J9S1)", "T3 sequence": "B1 chain", "experiment": "DNase I footprinting", "details": "EMSA/DNase I: 20 mM Tris-HCl pH 8.0, 1 mM MgCl2, 0.1 mM DTT, 12.5% glycerol, 50 mM NaCl, 0.4 mM EDTA, 37 C; EMSA with about 0.1 nM 32P-DNA and excess …"}, "[4]": {"target": "T3, FadRSa (Sulfolobus acidocaldarius)", "experiment": "EMSA", "details": "EMSA/DNase I: 20 mM Tris-HCl pH 8.0, 1 mM MgCl2, 0.1 mM DTT, 12.5% glycerol, 50 mM NaCl, 0.4 mM EDTA, 37 C; EMSA with about 0.1 nM 32P-DNA and excess …"}, "[5]": {"target": "T3, FadRSa (Sulfolobus acidocaldarius)", "experiment": "Cu-phenanthroline footprinting", "details": "EMSA/DNase I: 20 mM Tris-HCl pH 8.0, 1 mM MgCl2, 0.1 mM DTT, 12.5% glycerol, 50 mM NaCl, 0.4 mM EDTA, 37 C; EMSA with about 0.1 nM 32P-DNA and excess …"}, "[6]": {"target": "T3, FadRSa (Sulfolobus acidocaldarius)", "experiment": "footprinting", "details": "EMSA/DNase I: 20 mM Tris-HCl pH 8.0, 1 mM MgCl2, 0.1 mM DTT, 12.5% glycerol, 50 mM NaCl, 0.4 mM EDTA, 37 C; EMSA with about 0.1 nM 32P-DNA and excess …"}, "[7]": {"target": "the molecule itself", "experiment": "SEC; free purified FadRSa; apparent molecular weight from a calibrated column (Superdex 200 Increase 10/30 GL, 20 mM Na2HPO4 pH 7.4, 150 mM NaCl)"}, "[8]": {"target": "the molecule itself", "experiment": "native gel or EMSA; dimer with dimer on operator DNA: 45-bp 32P-labelled wildtype or mutated Saci_1123 operator probes; 20 mM Tris-HCl pH 8.0, 1 mM MgCl2, 0.1 mM DTT, 12.5% glycerol, 50 mM NaCl, 0.4 mM EDTA, 37 °C; 6% acrylamide gels"}, "[9]": {"target": "the molecule itself", "experiment": "crystal structure; SeMet FadRSa, SAD, 2.4 Å, space group P21, two molecules per asymmetric unit; acyl-CoA in subunit B"}, "FadRSa [10]": {"target": "T4, FadRSa (Sulfolobus acidocaldarius, UniProt Q4J9S1 1-196)", "T4 sequence": "B1 chain", "experiment": "SEC; 40:1 protein:DNA; complex B2, 179 kDa, two dimers; EMSA/DNase I: 20 mM Tris-HCl pH 8.0, 1 mM MgCl2, 0.1 mM DTT, 12.5% glycerol, 50 mM NaCl, 0.4 mM EDTA, 37 C; EMSA with about 0.1 nM 32P-DNA and excess nonspecific competitor DNA", "details": "protein: recombinant; (N-terminal pET45b or C-terminal pET24a His tag); chain copies: 2; label: 32P 5' end (EMSA); none (SEC); blunt"}, "FadRSa [11]": {"target": "T4, FadRSa", "experiment": "X-ray crystallography; 3.29 A; three dimers with two duplexes; EMSA/DNase I: 20 mM Tris-HCl pH 8.0, 1 mM MgCl2, 0.1 mM DTT, 12.5% glycerol, 50 mM NaCl, 0.4 mM EDTA, 37 C; EMSA with about 0.1 nM 32P-DNA and excess nonspecific competitor DNA", "details": "protein: recombinant; (N-terminal pET45b or C-terminal pET24a His tag); chain copies: 2; blunt"}, "FadRSa [12]": {"target": "T4, FadRSa", "experiment": "EMSA; single complex B; EMSA/DNase I: 20 mM Tris-HCl pH 8.0, 1 mM MgCl2, 0.1 mM DTT, 12.5% glycerol, 50 mM NaCl, 0.4 mM EDTA, 37 C; EMSA with about 0.1 nM 32P-DNA and excess nonspecific competitor DNA", "details": "protein: recombinant; (N-terminal pET45b or C-terminal pET24a His tag); chain copies: 2; label: 32P 5' end (EMSA); none (SEC); blunt"}, "FadRSa [13]": {"target": "T4, FadRSa", "experiment": "EMSA; two complexes B1 and B2; EMSA/DNase I: 20 mM Tris-HCl pH 8.0, 1 mM MgCl2, 0.1 mM DTT, 12.5% glycerol, 50 mM NaCl, 0.4 mM EDTA, 37 C; EMSA with about 0.1 nM 32P-DNA and excess nonspecific competitor DNA", "details": "protein: recombinant; (N-terminal pET45b or C-terminal pET24a His tag); chain copies: 2; label: 32P 5' end; blunt"}}, "note": "Residue numbers refer to the chain shown, from its start. In names and notes the source's numbering stands."}
{"molecule": "CCCCCCCC/C=C\\CCCCCCCC(=O)SCCNC(=O)CCNC(=O)[C@H](O)C(C)(C)COP(=O)(O)OP(=O)(O)OC[C@H]1O[C@@H](n2cnc3c(N)ncnc32)[C@H](O)[C@@H]1OP(=O)(O)O", "note": "[oleoyl-CoA]", "values": [{"measurement": "EMSA, release of FadRSa from operator DNA", "setting": "FadRSa [1]", "value": "addition of acetyl-CoA or hexanoyl-CoA does not affect sensitivity of the protein to oleoyl-CoA"}, {"measurement": "EMSA, ligand response of mutant (fraction of bound DNA)", "setting": "FadRSa [2]", "value": "alanine mutation of the allosterically altered Met101 residue desensitizes the protein to oleoyl-CoA"}]}
{"molecule": "CTTCACTCCAAATCCTATTAGGAAAGCTGACACTGAACCGACCTTTTAACTACAATGATAGTCGACTCAAAAATCAAGTATAATATAGTCGAAATATGCCCTCTTGAATAAAACCATGAAATATAAATGAGTCTATTCTGATCTGATAAAGTTC (double strand) [Saci_1106 peak 1 fragment]", "values": [{"measurement": "binding", "setting": "[3]", "value": "binds"}, {"measurement": "binding", "setting": "[4]", "value": "binds"}]}
{"molecule": "CGCCCTTTAGAGTGTGGAAGAAGTCAGTGGCACAGTTCTCTTCGTTTAAGCTTTTTTGTATCTCTTCATCAAAATTAAACTATTTGTTTTATTCATTATATCTTAATGTATTTGTGTAAATAATCTTCTTTATTCTAATCAATAAAATTATCGGAGAAGTTTATTATCGAGTTTACCTTTTAACTACAATGATAGTCGACTCAAAAATCAAGTAGTAAAGGTGGTGTGATGTATAGGGCTCC (double strand) [Saci_1107 (fadRSa) peak 2 fragment]", "values": [{"measurement": "binding", "setting": "[3]", "value": "binds"}, {"measurement": "binding", "setting": "[5]", "value": "binds"}, {"measurement": "binding", "setting": "[4]", "value": "binds"}]}
{"molecule": "CTACTTTCTAATATCACTATATTCACGCCTGGCAGACCCGACCTACTATGTTTAAACTTTTATAAAGTTGACATTATAATCAACTGATTATTTTAAAGGCAGTTCTAATTTTTCAAATAAACATAACACTAATCCTATAGATATAACTAATAAC (double strand) [Saci_1123 peak 4 footprint fragment]", "values": [{"measurement": "binding", "setting": "[6]", "value": "binds"}]}
{"molecule": "B1", "values": [{"measurement": "stoichiometry N", "setting": "[7]", "value": 2}]}
{"molecule": "B2", "values": [{"measurement": "binding result", "setting": "[8]", "value": "binds"}]}
{"molecule": "B3", "values": [{"measurement": "binding result", "setting": "[9]", "value": "binds"}]}
{"molecule": "B4", "values": [{"measurement": "binding result", "setting": "FadRSa [10]", "value": "binds"}]}
{"molecule": "B5", "values": [{"measurement": "binding result", "setting": "FadRSa [11]", "value": "binds"}]}
{"molecule": "B6", "values": [{"measurement": "binding result", "setting": "FadRSa [12]", "value": "binds"}]}
{"molecule": "B7", "values": [{"measurement": "binding result", "setting": "FadRSa [13]", "value": "binds"}]}
